{
  "source": "IntAct's records for PubMed 19242489",
  "parents": {"B1": {"name": "Integrin beta-4 (Homo sapiens), P16144 (parent)", "chain": "MAGPRPSPWARLLLAALISVSLSGTLANRCKKAPVKSCTECVRVDKDCAYCTDEMFRDRRCNTQAELLAAGCQRESIVVMESSFQITEETQIDTTLRRSQMSPQGLRVRLRPGEERHFELEVFEPLESPVDLYILMDFSNSMSDDLDNLKKMGQNLARVLSQLTSDYTIGFGKFVDKVSVPQTDMRPEKLKEPWPNSDPPFSFKNVISLTEDVDEFRNKLQGERISGNLDAPEGGFDAILQTAVCTRDIGWRPDSTHLLVFSTESAFHYEADGANVLAGIMSRNDERCHLDTTGTYTQYRTQDYPSVPTLVRLLAKHNIIPIFAVTNYSYSYYEKLHTYFPVSSLGVLQEDSSNIVELLEEAFNRIRSNLDIRALDSPRGLRTEVTSKMFQKTRTGSFHIRRGEVGIYQVQLRALEHVDGTHVCQLPEDQKGNIHLKPSFSDGLKMDAGIICDVCTCELQKEVRSARCSFNGDFVCGQCVCSEGWSGQTCNCSTGSLSDIQPCLREGEDKPCSGRGECQCGHCVCYGEGRYEGQFCEYDNFQCPRTSGFLCNDRGRCSMGQCVCEPGWTGPSCDCPLSNATCIDSNGGICNGRGHCECGRCHCHQQSLYTDTICEINYSAIHPGLCEDLRSCVQCQAWGTGEKKGRTCEECNFKVKMVDELKRAEEVVVRCSFRDEDDDCTYSYTMEGDGAPGPNSTVLVHKKKDCPPGSFWWLIPLLLLLLPLLALLLLLCWKYCACCKACLALLPCCNRGHMVGFKEDHYMLRENLMASDHLDTPMLRSGNLKGRDVVRWKVTNNMQRPGFATHAASINPTELVPYGLSLRLARLCTENLLKPDTRECAQLRQEVEENLNEVYRQISGVHKLQQTKFRQQPNAGKKQDHTIVDTVLMAPRSAKPALLKLTEKQVEQRAFHDLKVAPGYYTLTADQDARGMVEFQEGVELVDVRVPLFIRPEDDDEKQLLVEAIDVPAGTATLGRRLVNITIIKEQARDVVSFEQPEFSVSRGDQVARIPVIRRVLDGGKSQVSYRTQDGTAQGNRDYIPVEGELLFQPGEAWKELQVKLLELQEVDSLLRGRQVRRFHVQLSNPKFGAHLGQPHSTTIIIRDPDELDRSFTSQMLSSQPPPHGDLGAPQNPNAKAAGSRKIHFNWLPPSGKPMGYRVKYWIQGDSESEAHLLDSKVPSVELTNLYPYCDYEMKVCAYGAQGEGPYSSLVSCRTHQEVPSEPGRLAFNVVSSTVTQLSWAEPAETNGEITAYEVCYGLVNDDNRPIGPMKKVLVDNPKNRMLLIENLRESQPYRYTVKARNGAGWGPEREAIINLATQPKRPMSIPIIPDIPIVDAQSGEDYDSFLMYSDDVLRSPSGSQRPSVSDDTGCGWKFEPLLGEELDLRRVTWRLPPELIPRLSASSGRSSDAEAPHGPPDDGGAGGKGGSLPRSATPGPPGEHLVNGRMDFAFPGSTNSLHRMTTTSAAAYGTHLSPHVPHRVLSTSSTLTRDYNSLTRSEHSHSTTLPRDYSTLTSVSSHDSRLTAGVPDTPTRLVFSALGPTSLRVSWQEPRCERPLQGYSVEYQLLNGGELHRLNIPNPAQTSVVVEDLLPNHSYVFRVRAQSQEGWGREREGVITIESQVHPQSPLCPLPGSAFTLSTPSAPGPLVFTALSPDSLQLSWERPRRPNGDIVGYLVTCEMAQGGGPATAFRVDGDSPESRLTVPGLSENVPYKFKVQARTTEGFGPEREGIITIESQDGGPFPQLGSRAGLFQHPLQSEYSSITTTHTSATEPFLVDGLTLGAQHLEAGGSLTRHVTQEFVSRTLTTSGTLSTHMDQQFFQT"}},
  "data": [
    {"variants_of": "B1", "settings": "with plec_human PLEC", "values": [
      {"variant": "R1225H", "effect of a mutation on the interaction": "disrupting interaction"}
    ]},
    {"variants_of": "B1", "settings": "with plec_human PLEC", "remark": "another data set of the same source", "values": [
      {"variant": "R1281A", "effect of a mutation on the interaction": "disrupting interaction"}
    ]}
  ]
}
